The values below come from the NTF2 design screens of Basanta et al. (2020).

The data set can be described thus: protease stability score; higher = more stable; yeast display proteolysis, trypsin and chymotrypsin.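 Also: relative to predicted unfolded state with 0 unfolded-like and 1 meaning tenfold more protease.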
Consider “REEEEVVREIARRVIKSWITGNEHDMQEFADPHVRIFIGDKEIIGMEILNEILHRIKNITIRINMRHVDVQGDKVDLEGELEIRVNGQTERHDSRHHFDVVNGRIKIIEIQWD”, for which the protease stability score was found to be 0.918.
The result for “DEEDEMAISLAKLFVDDLMTGNWRSLQHLLDPHTRLHVGDKEHHGRQKSVEWLKDLVRRIDHLEMDIHRLDVQGEKAESETESNVNIGDKEVRYHMELIILVVNGRVKEIEIRLG” reads 0.941.
On to “TEEEELLKKFMKDFIQKHVTGDWDSLYKMADPDVKWHINGQQSIGREEVHRMWSEKLKRIDHIEHFHDESIHVIDGRVTLRGRITGNVDGRRYDVEVDFHLFVVDGKLKQFHVHHQ”, for which the protease stability score worked out at 0.849.
Regarding “DEEKERSDRLYERFFTAIFTGDEDLIRKLLDPDTRYQIGDKSSHGRDDIYDRIREMRNKVPNLRWDIRHVRIQGEKVHLDVEFNVNGKRDEFHIELDIVNGRLRHIRIEPV”, the protease stability score was determined as 1.24.
The result for “DEEEEEVRKLAHIHLHWLKTGDEEFEKKYADPHTKFRFNGRSSHGMEDFAEWVREIRIHDVIIRRVRVVNGVNEIDMEVDFEFDGKRIRSQTQILLFIYDGRIKSTEFTIR” reads 0.805.
The result for “HEEQKAIEEWAKRLWDVLLTGDEDELHELLDPHVKLEVHVDGKTIHRHGREEVIRFMVEMRIRDFKIEHVQMYGDKLHMNTRSRGIYNGKHRETEVSIIVTVVNGRLKMIIIEIR” reads 2.06; that for “DHDEKWAREVIRLLIEDIVTGDEESLSKLFDPHVRIEIGDKEHIGMEIALKLMIELWERLGVKHIHFHMSDIRVYDGRLDVDSRLHHVVNGRKHETKVRIFIRKINGRWVIESLVIH”, 2.25; that for “DEERKESQKALELMLELFQTGDEEELSKFADPHVRLEFRVGDKRFEIHGREEVSRFFHELIWRIKNLRLTRHNDEVQGEKVIIHFELRQGDKRSEINIIAIKINGRWFIKHETVILL”, 1.62.
With “SEEDTERTERFELMLHSWLTGDEEFWEKNADPNARLKLLVNGRDIRFHGREMVSEAIRKTLDDLGVDHRRIEHKEVQGDKVHIHQKIDVGDKELKVRIVVVVINGRNEMIIVEVI”, the protease stability score came out at 2.26.
For the sequence “SREEEEATHAVNRWMQLFITGDEESLRELADPDDRINIDGKDFHGREEFEMFMRLFVERFKNLRVELEDTRITVQGDKITVRFKIHFNINGVQTKTEVIIFSTKVNGRWHFKSEEVRHR”, the protease stability score was 0.415.
Under “SELEQELKHFVRLMKEIMRTGNWDLFERYADPNVRLEINGRDYIGRELASESLRHFVEEWGLDRVDVRVEHSSFQGDKAHSKINTDFNGQERTVHYDVLKVDGRWIVQRVRIE” stands 2.06; under “HEDEELMKELLKRWLNMLETGDWQNLAHYADPHVRLEFDGREIHGRTEVYRVLVEFHDKIKGMTYILKHSFYVGDKIHIKGSIRIGDKEYDTEIHIIIVDGRLKEVRVEHR”, 1.98.
Under “DEWDEHLEHVAKLIIELLLTGDEETLSRLADPHTRLEWNGRETHGRENMQETLIKILKEIWIHDIRIRHVRTQGDKAHVEGEQDGIINGVRRILDVRILIVVFNGRLRSLRFQID” stands 0.693; under “HELEERLEKWFKKFLHNMMTGDEDKLIHLADPHAKFRIDGVESHGRENWSRYVEERHLKLGLENIHVNVHRVHVQGDKIDMTGTLEINGQRVDFHIHIEVVDGRIKRLIIIIE”, 0.732.
The result for “DEINEDLERQARLFYHLWLTGDEEILEKLVDPHVRIILVFNGVPKQDHGREWLMKLFEEIRVEHFEIKTFEIQGEKAIMDTHEIIHVNGKRTRLRVHLWLTMVNGRIKTIEIRFV” reads 2.13.
Take “DDQEEWAKIAMEMILEFLKTGDEELMLELLDPNVRVHLLIDGRHFEDHGRKATRWVIRFIKNVQVKIHNIEYQGDKVHIDVHVDVNGRKTRSREIWTLVDGRIEHVDVQDR”: the protease stability score worked out at 1.2.
“DEEEKHARKVFRELEESLRTGDEHSMRRLLDPHTKIIINGQEHVGMEHADKFVHELRLKDSKIRHLEMHVIDGQAHLKMDVDVEGNFNGRDTRDRVTEIWIVDKINGRWLVSEVRFVKR” displayed a protease stability score of 1.13.
Under “DEKHELNEKALSEFLKIVHTGDERLVREMMDPHVRVHINGRDHHGMDDAVELMKFIKNMTVILTDKKIQGDKLEVHGIWIYNGVREETEIISEKVDGRWVIREVRHD” stands 1.07; under “SEEEEIAERFKKLMFEATHTGDWHTFMRLADPHVRVDINGKERHGREHWVEHERRLGIDHTDIRIRREREINGVMHIDSQLILHFNGVTLTLDHKLILKKVDGKWILHELKVD”, -0.054; under “DDSEHWARRFIHLLKRSLETGDEHLNKELADPHARIEVNGRELHGREDFSETLVRMGFNHVHITDFDVQGDKIELHIETDVGDKKIQVEFIVEKVNGRWLNRSMHIRIH”, 0.832.
Under “DEEEHIFQELIELWQTAMATGDEERTDRLLDPNAKIVINGVELHGMDEIKRLLEQMRLHVHDVKIDEIKFQGDYLHIDTTSDIIMRINGREHRIIVKTTVRMLKFDGRWWLHVISIR” stands 1.93; under “DETDEWAHKLMELILEYWLTGDWDLFNELADPNVKLIINGRESVGREEVREMLERTLKEIRLRRIEIDHVRIYDGRAQTHSRTDGDVNGKVTETHMHLHVLLINGRIRHVEIRLH”, 2.02; under “SEEHEFWERLARLTLHWLETGDWDKMNKNADPNVRTEVNGQELHGRESTTEIMRRDEKFFKNARFHLESMDVQGDKVHLIFEVDYNGRTIRRHLDWVIINGRFKEIRVEIR”, 1.17.
The result for “DETEEIAKKVVEYWIREFMTGNEESLLELIDPNAKSDILQGDKELHIVGRESARLFIKRFKGQRMEITHLEVHVQGDKVHVRLHVDIIYNGRKFHVISHVDWEKIDGRWIIHQEKFVFE” reads 1.71; that for “DEEEEFLHTLLRIFVEALMTGDEELLKKLADPHTKVRFNGQERHGWHAIQWMIEFFKNVRIEIHDMHIQGDKVHIDGRLKQGDKKLEMRIIIVIVNGKVHNEEYDLR”, 1.12; that for “DDRESIAEAVIRHMVEDFRTGNEDNMKRLFDPNTQLRYGDKTHHGWEDVVELLYHDIKHFGIKHVSVDRISVIGEKIHIDMRVEVGDKELTLHFTVDKINGKWKFESVERR”, 0.849.
“TEEDKMEHDYAKLFMFLERTGDETLFEKLVDPDVKHIFDGVHLHGREEVASFLHHLLREWRIHHIDLKRVDVVNGKIEIDGRRNGDFDGKRYETHFTIHVFLYDGRIKWFEIRIR” returned a protease stability score of 1.46.
Under “DEDKEYLREVLEVLKHMWDTGDERELSKLADPHTRVEINGVKFIGMEEFVRIMQELTKRADHMENRVERNIYQGDYVLVRTRLILKIGEKDFEREVDIFVRKFNGRWLIEELKFH” stands 1.37; under “TELDKHLEDFAREFLHAFLTGDEDELRRLLDPNVKFEHDFDGVRFENHGMSALKEFWERVDVIDRFEIHEVRTQGDFIELVFHIDGWVNGRHKRTDSRILLVVINGKIKTIHVKIK”, 2.15.
In the case of “SDLEEVIRKHIEELEESRRTGDEESLWRLLDPNTLKVVGDKRIHGMEAVAEIETFHDRRVKNATDRLNLREVHTQGDKLTIRGELILDWDGVKINVHVRLEILKFDGRWIIHRIEVK”, the protease stability score came to 0.715.
For the sequence “TEQMEWVEDIVRILVESINTGDEHVLKEMLDPNVRIHIGDKNVIGMEFIHRWLKEIRIEHLRVEISDVRFIGDKVKVRGRLKLHVDVDGRRHDVSHDVIIVFEKVDGKWFEREDRLL”, the protease stability score is 1.23.
Under “SEDEKSIKVAIELIINSVRTGDERFIKELADPHVRLEIGNKRVHGREEFAKLLSEENRQMRIHIIIDDVKSVGDFVFIRGTIEIHIDGVEERREFEIFVWKFNGRWVIKEERIH” stands 1.43; under “SEEEHLLREILERIIHIYSTGDEQILKHLMDPHVKITVEVNGRRIIFHGMEQYIQWYRDLGFDHSKVKLRDHRIIGDKAHAVTELEIHFDGKRREEETREVIVVIDGRLTTWHTSVN”, 0.898; under “TERREVVEQLLRHFFQSTITGDWRDLEHYIDPNARNIVNGKITHGREAITEYYMRFDYFHVDDIIIRERDVIDGQAHLRVEIHGQIEINGRKNRFETHVEIIILKVDGRWVWRSFDIR”, 1.33.
Under “DEDHQASRLVFELLDRAWKTGDEQILNEMMDPHVKVVFNGVELHGRSALERLMKELRIDTLHLDHTEIYDGRMETEGKVDGEYNGRTLHHITKIRFEKIDGRWVEREVVIK” stands 0.815.
Under “DEFRKDADRALHMFEDKIRTGNWRELDKLLDPHVRFEYGDKIHHGREQFKYFMDRYDHITARDHKIDHVEFQGDYLHMDTTVDGELFIDGKNIRIVNKSKLVLLKVNGRWTMHFLSHD” stands 0.818.
As for “SEDEEIVHLAIEMYLESIRTGDWKLWEKLIDPDVRLEVNGVEFHGMEEFLKFEREINKRVDHVEVRLRDTRLVNGQVNLNTELINRYDGRTIITETTYVAIKVDGKWYIHEYRIE”, the protease stability score was 1.14.
Under “DEDEEMFHRAVRLLLEHSRTGDEELTTKMADPHVKVDINGRDLIGRESYSRWWSEKAEQMRIDFRFRRVEVFDGVIFIDFKLIVDVNGRRLEFELHILILKIDGRWIIKEVHVK” stands 0.68.
Under “SEEEESSEDATKLILRLWKTGDEHEWEHLFDPNVKVHIGDKHYVGMEIAVNTLHMLLRELGIDHIRLRDVKIFNGKVIIVFKIEVNGREFETHIISEKVNGRWRIKSVRFE” stands 1.39.
Under “DEIEHLVHWAVEVYRHVLETGNESDLFRLFDPHVKLDVNGKEIVGREDVIEFISREIKQFDHVKLRIHRIDFQGDFVEVEGRLIVRQGDKEIRHDVRIYAEKIDGQWNVKSLSFR” stands 2.48; under “EEEKHLLRRIVRELTESERTGDEDHLDKLLDPHARTNVNGVDFHGREDWRKWTEEFFRRVDHIEFRIEDIKIINGVAIVDTRITMHIGDKHIHFELEIKNVIIDGRVKELRIKFK”, 0.91; under “DETTHELEWFTKIVAHAIETGDFEVMLNLIDPNVRVQEIIDGREIEFHGWHAFEHWMRKFKNITIIIRHVHHQGNKVEIEGEIDFNGKRRDVRIRFHVWNGRVKEFRHEER”, 1.52.
Take “HEEERDAEKLIRIWYHYLVTGDEERLLELLDPSTRMDINGVTHHGMEIVRDALHDLLRHLGVKVFRDIHIESVEIQGEKVITRMHVLFEVDGQELRIDSILFSHKINGKWLIEMHSKK”: the protease stability score worked out at 1.23.
The sequence “DEHEEMFTKLMRELIHIWLTGDEDILNHMADPNVLVEINGRREHGREALSRFLEKFKNVRIHLHSSTAIGEKSIIDTQININGKQIKVRVEIYMVDGKIKEIRLDIQ” came in with a protease stability score of 1.29.
Under “SEEEHEIRLAFKQVIETLITGDEHIMTQLLDPNVKIRQGDKILHGREEAHKWADEWLRRVDHFEDMKIHRHSVFNGRLELDSEQVVIQGDKTISIRSEIILTKINGRWQIEELRFD” stands 1.43; under “DERSHVLEEVLKKTSRANETGNEEIIEENLDPNTRFDWNGVIIHGREQWLELVKHMRISIHHFDTRDIREFNGRADVRGDMDSVIEVDGRRLRLDTHVIYHATKVDGRWVITEIRIH”, 0.41.
Under “SEEEKWAELALEETLRHLKTGDPRVLLELADPNVKLDVNGREYHGREVFLNFIEEFREKFKNITIEVKDRDVVNGRLITHLRLIVNGKEERVHMRSHKVDGQWVLDSVKIE” stands 1.9.
